Experimental data: paper PMC6327041 (Nature Communications, 2019)

Target: T1, KDM5A1-797 ΔPHD1 (Homo sapiens, UniProt P29375, DEL288-347/INS286GSGSGSG)
T1 construct: The KDM5A1-797 ΔPHD1 construct was generated after removing the residues Ser287-Lys347; His (N, cleaved yes); made in house; host or cells: Sf21 insect cells (baculovirus)
T1 sequence (P29375 with tags, fused parts or gaps INS286GSGSGSG/DEL288-347): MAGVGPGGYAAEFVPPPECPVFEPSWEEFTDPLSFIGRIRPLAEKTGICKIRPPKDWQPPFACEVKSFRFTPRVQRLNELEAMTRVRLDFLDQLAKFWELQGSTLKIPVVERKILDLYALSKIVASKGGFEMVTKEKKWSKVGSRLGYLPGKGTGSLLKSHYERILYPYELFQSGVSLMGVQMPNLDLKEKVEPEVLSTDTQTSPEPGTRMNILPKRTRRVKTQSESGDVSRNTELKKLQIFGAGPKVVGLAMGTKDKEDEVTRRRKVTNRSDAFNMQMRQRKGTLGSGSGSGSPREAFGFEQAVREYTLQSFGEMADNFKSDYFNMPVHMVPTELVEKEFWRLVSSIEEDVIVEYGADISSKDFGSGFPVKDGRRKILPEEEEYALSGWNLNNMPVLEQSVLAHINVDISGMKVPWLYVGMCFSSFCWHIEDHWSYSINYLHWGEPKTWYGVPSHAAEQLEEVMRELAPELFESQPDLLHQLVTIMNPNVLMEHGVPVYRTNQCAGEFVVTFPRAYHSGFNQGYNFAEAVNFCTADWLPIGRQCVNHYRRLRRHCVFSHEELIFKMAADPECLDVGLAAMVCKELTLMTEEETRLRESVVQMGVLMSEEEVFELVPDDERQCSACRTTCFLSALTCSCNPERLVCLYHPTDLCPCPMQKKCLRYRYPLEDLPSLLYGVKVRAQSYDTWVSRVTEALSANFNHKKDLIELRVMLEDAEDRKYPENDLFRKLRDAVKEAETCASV
Assay: KDM5A ΔPHD1 demethylation, formaldehyde release assay
Assay type: biochemical
Procedure: The KDM5A1-797 ΔPHD1 construct was generated after removing the residues Ser287-Lys347 and replacing them with a (GS)4 linker before cloning into a pFASTBAC HTA vector. The protocol for expression and purification of the KDM5A1-797 ΔPHD1 construct was the same as WT.
Michaelis–Menten parameters were determined using Graphpad Prism.

[1] = KDM5A1-797 ΔPHD1, n ≥ 3, s.e.m.

Ac-H3K4me3 21mer: N-terminally acetylated 21mer H3K4me3 peptide, catalytic domain substrate
kcat/Km (KDM5A1-797 ΔPHD1): 57.7 ± 13.7 M⁻¹ s⁻¹ | Km [1]: 819 ± 133 µM | kcat [1]: 0.0472 ± 0.0035 s⁻¹ | increase in Km on PHD1 deletion (ΔPHD1 vs WT KDM5A1-797): eightfold
